The record followed here is patent publication US20230312724A1 (KADMON, published 2023).

Assay [1] deals with T1, IgC domain of human B7-H4-Fc (human).
T1 construct: also called hB7-H4 IgC domain
Kind of assay: ELISA, coated hB7-H4 IgC domain. (In general: In an ELISA, binding on a coated surface is turned into a signal by an enzyme label.)

The target of assay [2] is T2, mouse B7-H4-Fc (mouse; human).
T2 construct: also called mB7-H4-Fc; mB7-H4-hFc
Kind of assay: ELISA, coated mB7-H4-Fc. As for the experimental part:
(§1) About 1-2 μg/ml of human or mouse B7-H4-Fc (or his-tagged) was immobilized on ELISA plates (Immuno 2HB, Thermo scientific, cat #3455) at 4° C. overnight. After blocking the plates with 3% PBS+milk, serial diluted antibodies were added to the blocked plates and incubated at RT for 1-1.5 h. After washing the plates with PBS-T (0.05%), horse radish peroxidase (HRP)-conjugated antibody targeting the hFab was added to the plate. Signals were developed by adding 3,3′,5,5′-Tetramethylbenzidine (TMB (followed 1N of H₂SO₄ to stop the reaction. The OD at 450 nm was read by ELISA plate reader (Infinite M1000 from TECAN). GraphPad from Prism was used to plot OD450 vs. antibody concentration curve and to calculate the EC50 values.

Assay [3] addresses T3, human B7-H4 expressed on cells (human, UniProt Q7Z7D3 25-282).
T3 construct: Transfected CHO cells or tumor cell lines that carry hB7-H4; also called cellular hB7-H4
T3 sequence: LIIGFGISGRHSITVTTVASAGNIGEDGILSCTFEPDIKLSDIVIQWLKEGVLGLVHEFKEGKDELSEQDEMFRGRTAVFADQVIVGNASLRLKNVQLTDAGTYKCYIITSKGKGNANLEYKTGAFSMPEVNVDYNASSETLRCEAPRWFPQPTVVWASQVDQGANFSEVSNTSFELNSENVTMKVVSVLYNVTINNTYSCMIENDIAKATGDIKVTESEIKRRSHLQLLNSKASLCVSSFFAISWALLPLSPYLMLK
Kind of assay: flow cytometry, SK-BR-3 cells. As for the experimental part: (§2) Cells were harvested, washed once, and then re-suspended to the concentration of 1×10⁶ cells/ml in ice cold FACS Buffer. 25 μl of cell suspension was added to each well of a 96-well round-bottom microliter plate. Serially diluted antibodies or fusion proteins were added to each well and incubated for 1 hour at 4° C. Cells were washed three times by centrifugation at 1500 rpm for 5 minutes, and then stained with secondary antibody (1:200 dilution) for 30 min at 4° C. in the dark. Cells were washed once, re-suspended in 100 μl PBS buffer and then analyzed using Guava Flow Cytometry EasyCyte system.
On the technique in general: Flow cytometry measures light scatter and fluorescence of single cells or particles in a stream.

The target in assay [4] is T4, mouse B7-H4 expressed on cells (mouse, UniProt Q7TSP5 25-257).
T4 construct: also called cellular mB7-H4; mB7-H4/CT26
T4 sequence: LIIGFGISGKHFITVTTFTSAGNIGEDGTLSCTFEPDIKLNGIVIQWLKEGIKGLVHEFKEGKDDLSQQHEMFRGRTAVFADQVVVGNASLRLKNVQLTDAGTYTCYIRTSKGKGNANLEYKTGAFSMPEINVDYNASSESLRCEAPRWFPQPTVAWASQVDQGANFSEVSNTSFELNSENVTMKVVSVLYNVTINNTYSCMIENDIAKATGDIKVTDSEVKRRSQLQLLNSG
As to the kind of experiment: flow cytometry, mB7-H4/CT26 cells. As for the experimental part: as §2

The target in assay [5] is T5, hB7-H4 (soluble human B7-H4, construct not named) (human, UniProt Q7Z7D3 25-259, limits assumed).
T5 construct: also called soluble hB7-H4
T5 sequence: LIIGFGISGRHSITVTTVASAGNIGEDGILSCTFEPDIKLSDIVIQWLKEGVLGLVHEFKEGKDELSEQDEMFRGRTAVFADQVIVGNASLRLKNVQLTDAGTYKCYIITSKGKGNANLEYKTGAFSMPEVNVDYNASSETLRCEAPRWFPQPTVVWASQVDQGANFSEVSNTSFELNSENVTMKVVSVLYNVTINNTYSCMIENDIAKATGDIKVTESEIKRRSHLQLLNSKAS
Kind of assay: SPR (Biacore). As for the experimental part:
(§3) Surface plasmon resonance experiments were performed using a Biacore T200 instrument equipped with CM5 sensor chips. The system was equilibrated in running buffer HBS-EP pH 7.4. The ligands were immobilized using amine-coupling chemistry. The surfaces of flow cells one through four were activated for 5 min using an amine coupling kit at a flow rate of […]. The ligands (human B7-H4-Fc, human B7-H4-hism and mouse B7-H4-Fc; at a concentration of 5 μg/ml in 10 mM sodium acetate, pH 5.0) were immobilized at a density of 50-100 RU on flow cell 2, 3, 4 respectively. Flow cell 1 was left blank to serve as a reference surface. All flow cell surfaces were blocked with a 5 min injection of 1 M ethanolamine, pH 8.0. To collect kinetic binding data, the respective analyte (diluted in 1×HBS-EP buffer, pH 7.4) was injected over the four flow cells at concentrations of 100 nM to 0.1 nM at a flow rate of […] and at a temperature of 25° C. The protein complex was allowed to associate and dissociate for 180 seconds and 1000 or 1200 seconds, respectively. The surfaces were regenerated with a 30 second injection of 1.5 M NaCl/0.05 M NaOH. The data were fit to a simple 1:1 interaction model using the Langmuir fit option available within the Biaevaluaton software
For orientation: SPR reads the build-up and loss of mass on a sensor chip optically.

The target in assay [6] is T6, mB7-H4 (soluble mouse B7-H4, construct not named) (mouse, UniProt Q7TSP5 25-257, limits assumed).
T6 sequence: T4 sequence
As to the kind of experiment: SPR (Biacore). On the procedure: as §3

Assay [7] deals with T7, IgC domain of mouse B7-H4-Fc (mouse; human).
T7 construct: also called mB7-H4 IgC domain
Kind of assay: ELISA, coated mB7-H4 IgC domain.

Assay [8] concerns the target T5, hB7-H4 (soluble human B7-H4, construct …). As to the kind of experiment: ELISA, hB7-H4. On the procedure:
as §1

Assay [9] concerns the target T6, mB7-H4 (soluble mouse B7-H4, construct …). As to the kind of experiment: ELISA, mB7-H4. As for the experimental part:
as §1

Assay [10] has as its target T8, human B7-H4-his (human, UniProt Q7Z7D3 25-259).
T8 construct: also called hB7-H4-his; hB7-H4 his; not shown: his tag
T8 sequence: T5 sequence
Kind of assay: ELISA, coated hB7-H4-his. On the procedure:
as §1

Assay [11] concerns the target T9, mouse B7-H4-his (mouse, UniProt Q7TSP5 25-257).
T9 construct: also called mB7-H4-his; mB7-H4-His; not shown: his tag
T9 sequence: T4 sequence
As to the kind of experiment: ELISA, coated mB7-H4-his (title on the sheet: Binding to mB7H4-his). As for the experimental part:
as §1

Assay [12] deals with T6, mB7-H4 (soluble mouse B7-H4, construct …). Kind of assay: ELISA, mB7-H4. On the procedure: as §1
The source holds these as a separate data set.

The target is the same in assay [13]. Kind of assay: SPR (Biacore); values equal to Table 11.
For assay [14], the target named is T10, IgV domain of mouse B7-H4-Fc (mouse; human).
T10 construct: also called mB7-H4 IgV domain
As to the kind of experiment: ELISA, coated mB7-H4 IgV domain.

Assay [15] addresses T5, hB7-H4 (soluble human B7-H4, construct …). As to the kind of experiment: ELISA, hB7-H4. As for the experimental part: as §1
The source holds these as a separate data set.

In assay [16] the target is T11, IgV domain of human B7-H4-Fc (human).
T11 construct: also called hB7-H4 IgV domain
Kind of assay: ELISA, coated hB7-H4 IgV domain.

The target in assay [17] is T5, hB7-H4 (soluble human B7-H4, construct …). As to the kind of experiment: SPR (Biacore). The source holds these as a separate data set.
Assay [18] deals with T3, human B7-H4 expressed on cells. Kind of assay: flow cytometry, SK-BR-3 cells. The source holds these as a separate data set.
Assay [19] addresses T1, IgC domain of human B7-H4-Fc. As to the kind of experiment: ELISA, coated hB7-H4 IgC domain. This is another data set of the same source.
Assay [20] has as its target T4, mouse B7-H4 expressed on cells. Kind of assay: flow cytometry, mB7-H4/CT26 cells. The source holds these as a separate data set.

Changes are numbered by the printed parent chain. Like-named read-outs stand apart in the source and are kept apart here.

T7 sequence (chain, as listed by the source): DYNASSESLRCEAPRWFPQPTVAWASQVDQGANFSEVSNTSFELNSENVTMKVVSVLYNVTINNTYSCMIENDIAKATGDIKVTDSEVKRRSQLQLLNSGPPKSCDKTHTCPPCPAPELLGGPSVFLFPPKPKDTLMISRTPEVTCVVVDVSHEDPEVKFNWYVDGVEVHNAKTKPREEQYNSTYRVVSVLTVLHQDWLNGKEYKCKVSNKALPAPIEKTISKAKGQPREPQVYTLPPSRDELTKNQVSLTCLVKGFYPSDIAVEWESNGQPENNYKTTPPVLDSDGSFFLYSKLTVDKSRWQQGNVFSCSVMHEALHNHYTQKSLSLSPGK
T1 sequence (chain, as listed by the source): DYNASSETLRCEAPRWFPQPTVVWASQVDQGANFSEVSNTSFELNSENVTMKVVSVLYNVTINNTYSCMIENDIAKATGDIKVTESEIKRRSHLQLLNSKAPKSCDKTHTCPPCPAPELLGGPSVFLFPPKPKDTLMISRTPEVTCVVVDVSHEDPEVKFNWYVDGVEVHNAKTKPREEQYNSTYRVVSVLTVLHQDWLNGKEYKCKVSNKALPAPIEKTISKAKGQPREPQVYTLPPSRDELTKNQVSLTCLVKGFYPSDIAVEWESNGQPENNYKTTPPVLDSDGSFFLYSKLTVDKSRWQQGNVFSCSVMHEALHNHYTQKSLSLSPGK
T2 sequence (chain, as listed by the source): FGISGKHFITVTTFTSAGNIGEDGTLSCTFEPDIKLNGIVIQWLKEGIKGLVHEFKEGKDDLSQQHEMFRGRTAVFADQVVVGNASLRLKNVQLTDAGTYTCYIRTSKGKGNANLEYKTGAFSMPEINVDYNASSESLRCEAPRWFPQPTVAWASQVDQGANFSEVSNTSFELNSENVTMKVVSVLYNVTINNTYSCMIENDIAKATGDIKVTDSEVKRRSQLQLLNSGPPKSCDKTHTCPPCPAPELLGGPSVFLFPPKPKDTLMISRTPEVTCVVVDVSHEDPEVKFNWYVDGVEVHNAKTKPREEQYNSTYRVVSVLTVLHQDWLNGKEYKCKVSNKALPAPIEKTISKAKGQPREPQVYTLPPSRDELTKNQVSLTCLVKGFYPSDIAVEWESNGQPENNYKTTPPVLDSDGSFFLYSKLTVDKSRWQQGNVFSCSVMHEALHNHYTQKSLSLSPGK
T10 sequence (chain, as listed by the source): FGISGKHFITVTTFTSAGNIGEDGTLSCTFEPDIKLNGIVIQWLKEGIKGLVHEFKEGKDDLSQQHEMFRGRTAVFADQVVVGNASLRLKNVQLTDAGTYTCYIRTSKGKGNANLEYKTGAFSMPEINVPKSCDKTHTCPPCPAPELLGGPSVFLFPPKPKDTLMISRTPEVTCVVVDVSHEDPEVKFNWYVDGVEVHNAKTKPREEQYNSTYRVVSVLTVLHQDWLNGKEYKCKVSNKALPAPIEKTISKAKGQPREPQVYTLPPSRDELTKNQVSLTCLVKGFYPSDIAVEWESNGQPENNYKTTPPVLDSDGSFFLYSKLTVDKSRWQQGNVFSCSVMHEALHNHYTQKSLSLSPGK
T11 sequence (chain, as listed by the source): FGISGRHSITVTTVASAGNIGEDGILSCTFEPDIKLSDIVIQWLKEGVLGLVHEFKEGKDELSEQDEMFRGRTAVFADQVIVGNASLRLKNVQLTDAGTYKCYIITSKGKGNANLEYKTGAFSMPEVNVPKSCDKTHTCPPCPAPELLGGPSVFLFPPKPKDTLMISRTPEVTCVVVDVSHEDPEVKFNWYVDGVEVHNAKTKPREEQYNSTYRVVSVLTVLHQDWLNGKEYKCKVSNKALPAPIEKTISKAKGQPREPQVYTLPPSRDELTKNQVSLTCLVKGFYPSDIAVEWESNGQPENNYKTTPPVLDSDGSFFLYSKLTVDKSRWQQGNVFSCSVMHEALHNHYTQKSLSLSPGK

B1: 39A11/56A9 (antibody, human IgG1, V domains shown)
VH: EVQLLESGGGLVQPGGSLRLSCAASGFTFSSYGMHWVRQAPGKGLEWVASISSSSGYIYYADSVKGRFTISRDNSKNTLYLQMNSLRAEDTAVYYCARASSGMDVWGQGTTVTVSS
VL: DIQMTQSPSSLSASVGDRVTITCRASQSISSYLNWYQQKPGKAPKLLIYAASIRESGVPSRFSGSGSGTDFTLTISSLQPEDFATYYCQQYYTTPLTFGQGTKLEIK
notes: 39A11 VH with 56A9 VL
As to B1, the binding result in assay [1] is given as “no binding (tested: log 1 nM (10 nM))”; in assay [2], “binds”; in assay [7], “no binding (tested: log 1 nM (10 nM))”. Also, the EC50 in assay [3] amounted to 2.53 nM; in assay [4], 1.85 nM; in [8], 0.081 nM; in assay [9] it was 0.13 nM. The Kd in [5] is 1.21 nM; in assay [6] it was 0.00138 nM.

B2: 39A11/62F9 (antibody, human IgG1, V domains shown)
VH: B1 VH
VL: B1 VL with I29V, Y32A, L33V, N34A, T93S
notes: 39A11 VH with 62F9 VL
With B2, the binding result in [1] is on record as “no binding (tested: log 1 nM (10 nM))”; in assay [2], “binds”; in [7], “no binding (tested: log 1 nM (10 nM))”. Moreover, the 50% effective concentration (EC50) in assay [3] was found to be 1.31 nM; in assay [4] it was 1.32 nM; in assay [8], 0.079 nM; in assay [9], 0.124 nM. For the same molecule, the Kd in assay [5] was 0.853 nM; in [6] it was 1.85 nM.

B3: 39A11/57H3 (antibody, human IgG1, V domains shown)
VH: B1 VH
VL: B1 VL with R24Q, S28D, S30R, S31K, I53T, T93S, T94L
notes: 39A11 VH with 57H3 VL
Regarding B3, the binding result in assay [1] is on record as “no binding (tested: log 1 nM (10 nM))”; in assay [2], “binds”; in assay [7] it was “no binding (tested: log 1 nM (10 nM))”. The EC50 is 2.07 nM in assay [3], 1.63 nM in assay [4], 0.086 nM in [8] and 0.128 nM in [9]. For the same molecule, the Kd turned out to be 0.478 nM in [5] and 0.00125 nM in assay [6]. The same molecule showed an off-rate (koff) in assay [6] of 6.22e-07 s⁻¹.

B4: 39A11/56H7 (antibody, human IgG1, V domains shown)
VH: B1 VH
VL: B1 VL with I53N, R54L, E55Q
notes: 39A11 VH with 56H7 VL
On to B4, for which the binding result is listed as “no binding (tested: log 1 nM (10 nM))” in assay [1], “binds” in assay [2] and “no binding (tested: log 1 nM (10 nM))” in assay [7]. Further, the EC50 in [3] was determined as 2.85 nM; in assay [4], 1.67 nM; in assay [8] it was 0.061 nM; in assay [9], 0.107 nM. Moreover, the figures for the Kd in assay [5] and in assay [6] were 0.779 nM and 0.000219 nM, respectively.

B5: 9D11/67C3 (antibody, human IgG1, V domains shown)
VH: QVQLVQSGAEVKKPGASVKVSCKASGYTFTSYGISWVRQAPGQGLEWVGVINPNGGTTTYAQTFQGRVTMTRDTSTSTVYMELSSLRSEDTAVYYCARTGYSSGWAFDYWGRGTLVTVSS
VL: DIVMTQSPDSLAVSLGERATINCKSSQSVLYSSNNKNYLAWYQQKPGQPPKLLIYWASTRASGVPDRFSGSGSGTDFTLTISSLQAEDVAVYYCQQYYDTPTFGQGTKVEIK
notes: 9D11 VH with 67C3 VL
In the case of B5, in assay [2], the binding result is “binds”. In addition, the EC50 in assay [3] came out at 4.06 nM; in assay [4], 28.2 nM; in assay [8] it was 0.112 nM; in [9] it was 0.086 nM. Besides, the “EC50 (read off the curve)” value in assay [10] and in [11] was roughly 0.2 nM each time. The Kd in [5] turned out to be 11.4 nM; in assay [6], 10.4 nM.

B6: 9D11/67E12 (antibody, human IgG1, V domains shown)
VH: B5 VH
VL: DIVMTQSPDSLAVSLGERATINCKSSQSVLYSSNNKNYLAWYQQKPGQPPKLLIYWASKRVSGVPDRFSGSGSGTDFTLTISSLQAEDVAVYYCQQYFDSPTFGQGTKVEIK
notes: 9D11 VH with 67E12 VL
With B6, the binding result in assay [2] was “binds”. Also, the 50% effective concentration (EC50) was 8.08 nM in [3], 16.7 nM in assay [4], 0.203 nM in assay [8] and 0.11 nM in assay [9]. Moreover, the “EC50 (read off the curve)” value is roughly 0.2 nM in [10] and roughly 0.1 nM in assay [11]. The equilibrium dissociation constant (Kd) in assay [5] was 6.3 nM; in assay [6], 4.66 nM.

B7: 9D11/68F5 (antibody, human IgG1, V domains shown)
VH: B5 VH
VL: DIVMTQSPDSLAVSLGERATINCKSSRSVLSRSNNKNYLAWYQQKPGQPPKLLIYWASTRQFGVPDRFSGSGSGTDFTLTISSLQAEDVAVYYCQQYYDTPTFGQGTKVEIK
notes: 9D11 VH with 68F5 VL
B7: the EC50 was 0.144 nM in [12]; 9.53 nM in [3]; 0.105 nM in [15]; 31.8 nM in [4]; 3.53 nM in assay [18]; 9.41 nM in [20]. In addition, the EC50 is 0.778 nM in assay [8] and 0.145 nM in assay [9]. Besides, the Kd is 2.96 nM in [13], 2.96 nM in assay [17], 7.15 nM in assay [5] and 5.96 nM in assay [6]. Further, the binding result in assay [2] is listed as “binds”; in assay [14] it was “no binding (tested: log 1 nM (10 nM))”; in assay [16], “no binding (tested: log 1 nM (10 nM))”. Further, the “EC50 (read off the curve)” value in assay [10] was roughly 0.2 nM; in assay [11], roughly 0.1 nM; in assay [19] it was roughly 0.1 nM.

The term EC50 denotes the concentration at which the effect is half-maximal. A lower EC50 goes with higher potency in that assay. Usually Kd stands for the free concentration of one partner at which half of the binding sites on the other are occupied at equilibrium, for simple one-to-one binding. A higher Kd goes with a looser complex. In general, koff refers to a measure of how fast the partners let go of each other. Read a high koff as fast dissociation. The term EC50 (read off the curve) denotes the concentration that produces a half-maximal response. Higher therefore signals lower potency in that assay.
